Test results taken from article PMC2918688 (Molecular immunology, 2010).

B2: purified cJun (natural protein, human, UniProt P05412 1-331, looked up)
chain: MTAKMETTFYDDALNASFLPSESGPYGYSNPKILKQSMTLNLADPVGSLKPHLRAKNSDLLTSPDVGLLKLASPELERLIIQSSNGHITTTPTPTQFLCPKNVTDEQEGFAEGFVRALAELHSQNTLPSVTSAAQPVNGAGMVAPAVASVAGGSGSGGFSASLHSEPPVYANLSNFNPGALSSGGGAPSYGAAGLAFPAQPQQQQQPPHHLPQQMPVQHPRLQALKEEPQTVPEMPGETPPLSPIDMESQERIKAERKRMRNRIAASKCRKRKLERIARLEEKVKTLKAQNSELASTANMLREQVAQLKQKVMNHVNSGCQLMLTQQLQTF

Key:
Assay in all cases: pull-down
purified cJun = molecular target: B2
GST-NFATc2 (full-length) = molecular target: T1, GST-NFATc2 (full-length) (human, UniProt Q13469-2 1-921)
T1 sequence (looked up): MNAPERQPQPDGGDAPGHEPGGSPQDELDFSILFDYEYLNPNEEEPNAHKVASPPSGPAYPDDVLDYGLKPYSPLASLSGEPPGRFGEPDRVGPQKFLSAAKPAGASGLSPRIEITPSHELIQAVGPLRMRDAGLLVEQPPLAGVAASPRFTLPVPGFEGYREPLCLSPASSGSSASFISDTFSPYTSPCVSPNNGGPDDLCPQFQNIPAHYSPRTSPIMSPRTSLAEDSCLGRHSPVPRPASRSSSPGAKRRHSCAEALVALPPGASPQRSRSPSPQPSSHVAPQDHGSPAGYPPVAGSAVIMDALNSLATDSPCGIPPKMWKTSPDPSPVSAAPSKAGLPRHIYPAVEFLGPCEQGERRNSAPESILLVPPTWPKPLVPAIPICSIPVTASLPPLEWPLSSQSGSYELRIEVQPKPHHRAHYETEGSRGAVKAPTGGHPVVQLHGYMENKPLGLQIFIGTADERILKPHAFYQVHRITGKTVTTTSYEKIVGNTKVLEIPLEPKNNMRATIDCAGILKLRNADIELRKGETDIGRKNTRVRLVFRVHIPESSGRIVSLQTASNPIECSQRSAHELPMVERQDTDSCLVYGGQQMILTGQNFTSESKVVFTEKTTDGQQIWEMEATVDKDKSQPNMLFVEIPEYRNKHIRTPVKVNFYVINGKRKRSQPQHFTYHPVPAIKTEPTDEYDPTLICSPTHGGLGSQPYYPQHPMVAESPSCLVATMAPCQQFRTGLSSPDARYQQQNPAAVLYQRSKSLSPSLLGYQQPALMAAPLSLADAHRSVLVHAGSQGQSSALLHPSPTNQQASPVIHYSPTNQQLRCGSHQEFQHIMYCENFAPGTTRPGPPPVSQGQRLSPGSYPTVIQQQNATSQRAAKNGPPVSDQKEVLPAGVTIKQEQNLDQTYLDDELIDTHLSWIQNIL

HA-NFATc2 = molecular target: T2, HA-NFATc2 (human, UniProt Q13469-2 1-921)
T2 sequence (looked up): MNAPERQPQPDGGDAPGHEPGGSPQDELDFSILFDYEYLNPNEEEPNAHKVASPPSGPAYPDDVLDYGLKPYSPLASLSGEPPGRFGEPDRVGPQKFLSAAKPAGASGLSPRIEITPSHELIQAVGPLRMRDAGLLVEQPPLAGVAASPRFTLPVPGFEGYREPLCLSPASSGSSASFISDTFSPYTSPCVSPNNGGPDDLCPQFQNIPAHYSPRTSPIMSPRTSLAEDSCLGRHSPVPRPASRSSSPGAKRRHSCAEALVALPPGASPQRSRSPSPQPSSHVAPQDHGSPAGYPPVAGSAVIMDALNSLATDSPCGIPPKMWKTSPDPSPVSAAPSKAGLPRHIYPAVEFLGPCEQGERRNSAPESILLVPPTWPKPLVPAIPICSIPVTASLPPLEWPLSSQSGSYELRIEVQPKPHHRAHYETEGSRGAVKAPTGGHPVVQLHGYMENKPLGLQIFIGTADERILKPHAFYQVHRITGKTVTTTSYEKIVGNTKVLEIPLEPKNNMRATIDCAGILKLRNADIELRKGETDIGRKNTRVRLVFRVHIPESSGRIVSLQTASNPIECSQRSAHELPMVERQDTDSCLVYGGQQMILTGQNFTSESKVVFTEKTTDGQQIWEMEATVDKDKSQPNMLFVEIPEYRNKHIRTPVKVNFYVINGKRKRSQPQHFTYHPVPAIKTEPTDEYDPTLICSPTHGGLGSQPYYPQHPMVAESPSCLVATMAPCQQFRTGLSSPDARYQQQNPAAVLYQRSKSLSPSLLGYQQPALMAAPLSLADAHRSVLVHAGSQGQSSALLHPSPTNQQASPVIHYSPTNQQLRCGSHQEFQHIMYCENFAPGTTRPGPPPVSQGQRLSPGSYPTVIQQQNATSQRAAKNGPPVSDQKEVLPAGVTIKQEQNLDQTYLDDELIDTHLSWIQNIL

B1: GST-NFATc2(688–921) (domain or fragment, human, UniProt Q13469-2 688-921, looked up)
chain: EYDPTLICSPTHGGLGSQPYYPQHPMVAESPSCLVATMAPCQQFRTGLSSPDARYQQQNPAAVLYQRSKSLSPSLLGYQQPALMAAPLSLADAHRSVLVHAGSQGQSSALLHPSPTNQQASPVIHYSPTNQQLRCGSHQEFQHIMYCENFAPGTTRPGPPPVSQGQRLSPGSYPTVIQQQNATSQRAAKNGPPVSDQKEVLPAGVTIKQEQNLDQTYLDDELIDTHLSWIQNIL
Question: Does B1 bind (purified cJun)?
Answer: binds

Question: Does B2 bind (GST-NFATc2 (full-length))?
Answer: binds

B3: GST-cJun(1–317) (domain or fragment, human, UniProt P05412 1-317, looked up)
chain: MTAKMETTFYDDALNASFLPSESGPYGYSNPKILKQSMTLNLADPVGSLKPHLRAKNSDLLTSPDVGLLKLASPELERLIIQSSNGHITTTPTPTQFLCPKNVTDEQEGFAEGFVRALAELHSQNTLPSVTSAAQPVNGAGMVAPAVASVAGGSGSGGFSASLHSEPPVYANLSNFNPGALSSGGGAPSYGAAGLAFPAQPQQQQQPPHHLPQQMPVQHPRLQALKEEPQTVPEMPGETPPLSPIDMESQERIKAERKRMRNRIAASKCRKRKLERIARLEEKVKTLKAQNSELASTANMLREQVAQLKQKVMNHVN
Question: Does B3 bind (HA-NFATc2)?
Answer: binds
